In patent US20180142030A1:

Experiments:
Assay in all cases: method not stated for Table 5; Fc variant against Fcγ receptor
FcγRIIa-R131 (human) = FcγRIIa-R131 (human) (UniProt P12318)
FcγRIIb (human) = FcγRIIb (human) (UniProt P31994)
FcγRIIa-H131 (human) = FcγRIIa-H131 (human) (UniProt P12318)
Chain of FcγRIIa-H131 (human) (P12318 34-218 limits assumed): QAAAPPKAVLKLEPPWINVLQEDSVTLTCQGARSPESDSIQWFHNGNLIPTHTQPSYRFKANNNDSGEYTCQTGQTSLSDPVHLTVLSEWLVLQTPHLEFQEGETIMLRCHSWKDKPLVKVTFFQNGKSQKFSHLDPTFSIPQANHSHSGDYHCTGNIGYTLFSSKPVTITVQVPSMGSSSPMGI

Chain of FcγRIIb (human) (P31994 43-217 limits assumed): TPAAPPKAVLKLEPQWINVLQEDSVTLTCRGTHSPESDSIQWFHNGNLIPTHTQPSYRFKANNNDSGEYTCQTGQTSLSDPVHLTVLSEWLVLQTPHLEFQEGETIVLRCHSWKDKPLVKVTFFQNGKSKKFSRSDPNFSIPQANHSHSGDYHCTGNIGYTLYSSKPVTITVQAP
Chain of FcγRIIa-R131 (human) (P12318 34-218 H167R limits assumed): as the sequence (P12318 34-218 limits assumed) above, with H134R counted along it

Kd (FcγRIIa-R131 (human)) [nM] | Kd (FcγRIIb (human)) [nM] | Kd (FcγRIIa-H131 (human)) [nM] | Substance
850 | 3900 | 530 | IgG1f Fc sequence variant (Table 5) (antibody)
– | 950 | – | P238D Fc sequence variant (Table 5) (antibody)
2 | – | – | SELF Fc sequence variant (Table 5) (antibody)
22 | 98 | 520 | SE Fc sequence variant (Table 5) (antibody)
